# Measurements taken from PMC4117942 (Genes & Development, 2014).
# B1: D. melanogaster Rhino chromodomain (19–85) (domain or fragment)
# chain: DHVEEYVVEKILGKRFVNGRPQVLVKWSGFPNENNTWEPLENVGNCMKLVSDFESEVFRLHRKAAAK
# Legend:
# [1] = target: Rhino chromodomain (23–85) (D. melanogaster) (UniProt Q7JXA8); test: ITC
# [2] = target: B1; test: crystal structure
# crystal structure = target: the molecule itself; test: crystal structure
Kd [1],Molecule,other results
21.8 µM,H3(1–15)K9me3 peptide (from UniProt P02299 2-16),
28.4 µM,H3(1–15)K9me2 peptide (from UniProt P02299 2-16),
,ARTKQTARKSTGGKA (trimethyl-lysine at 9 (K9me3)) [H3(1–15)K9me3 peptide],binding result [2]: binds
,B1,binding result (crystal structure): binds
